Tests used:
[1] = biological target: the molecule itself; experiment: SEC; purified MupA alone, at higher concentrations (>2 mg/ml)
[2] = biological target: the molecule itself; experiment: SEC; purified MupA alone, at the lower concentrations (not above 2 mg/ml)
[3] = biological target: the molecule itself; experiment: not stated; purification of recombinant Fre (Figure S6); how the dimer was shown is not told

B1: MupA (enzyme, Pseudomonas fluorescens, UniProt Q9AH80 1-369, looked up)
chain: MSVEQLLGLGVTNAARAPRQPAFSLLFFSDVREDISASEKYEFARSLTLFGDAQGFEAVYFPERHFHEFGAIYPDSAVMAASLIPQTRHIRFRTAGISLPLHHPARVVESWSMNDVLSGGRVDLGFGSGWSRPDFLLAPHAYEDRREVMWQRIEQVRRLWAGERLSFPGPGGDPVSVVTFPRPLQTSLNVWILVAQNTESFIAAGKAGFNVFTMLYGIDLPDLAEKIGLYRQARRDAGFDPASGRVTLMLHTLVGPDSAWVRRAVEAPFKDYIRSSLVAHMKARATPDGRPLDATEQENVLQYAFERYYETGALFGTVDEVRYRVGQVLETGVDEIACLMDFGVDYAVVHQSLPYLEQLVASFQERSAQ
notes: MupA, predicted FMNH2-dependent monooxygenase of the mupirocin biosynthetic gene cluster of Pseudomonas fluorescens NCIMB 10586; Dimer by SEC, dimer of dimers above 2 mg/ml; Used unlabelled in the NMR titrations; they may stand in the Supporting Information; also called flavin-dependent monooxygenase MupA; FMO; source: cloned, over-expressed and purified to homogeneity
- stoichiometry N [1]: 4
- stoichiometry N [2]: 2

B2: Fre (enzyme, E. coli, UniProt P0AEN1 1-233, looked up)
chain: MTTLSCKVTSVEAITDTVYRVRIVPDAAFSFRAGQYLMVVMDERDKRPFSMASTPDEKGFIELHIGASEINLYAKAVMDRILKDHQIVVDIPHGEAWLRDDEERPMILIAGGTGFSYARSILLTALARNPNRDITIYWGGREEQHLYDLCELEALSLKHPGLQVVPVVEQPEAGWRGRTGTVLTAVLQDHGTLAEHDIYIAGRFEMAKIARDLFCSERNAREDRLFGDAFAFI
notes: NAD(P)H:flavin oxidoreductase Fre of E. coli (GenBank M61182); Purified as the expected dimer; also called oxidoreductase Fre; E. coli Fre; source: E. coli, overexpressed, purified
- stoichiometry N [3]: 2

Reference: article PMC10953402, “Structure and Function of the α‐Hydroxylation Bimodule of the Mupirocin Polyketide Synthase” (Angewandte Chemie (International Ed. in English), 2023)
